Experimental data reported in patent publication US20030068788A1.

Legend:
[1] = target: T1, P450Ema1 monooxygenase from Streptomyces tubercidicus strain R-922 (Streptomyces tubercidicus strain R-922); assay: cell-based or functional assay
T1 sequence: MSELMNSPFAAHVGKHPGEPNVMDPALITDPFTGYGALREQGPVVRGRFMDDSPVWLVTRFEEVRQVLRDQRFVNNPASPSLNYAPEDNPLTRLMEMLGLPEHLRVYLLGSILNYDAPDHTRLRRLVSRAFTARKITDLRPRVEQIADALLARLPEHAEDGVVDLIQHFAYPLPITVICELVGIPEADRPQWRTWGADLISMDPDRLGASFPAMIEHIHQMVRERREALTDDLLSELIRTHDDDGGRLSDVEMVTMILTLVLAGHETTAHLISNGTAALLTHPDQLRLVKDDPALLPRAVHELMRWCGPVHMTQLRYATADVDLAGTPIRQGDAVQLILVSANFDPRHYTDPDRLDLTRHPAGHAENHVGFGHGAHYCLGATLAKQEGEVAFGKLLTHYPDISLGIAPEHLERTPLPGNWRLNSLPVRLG

[2] = target: T2, P450Ema1A, N-terminally truncated P450Ema1 encoded by ema1A (Streptomyces tubercidicus strain R-922); assay: cell-based or functional assay
T2 sequence: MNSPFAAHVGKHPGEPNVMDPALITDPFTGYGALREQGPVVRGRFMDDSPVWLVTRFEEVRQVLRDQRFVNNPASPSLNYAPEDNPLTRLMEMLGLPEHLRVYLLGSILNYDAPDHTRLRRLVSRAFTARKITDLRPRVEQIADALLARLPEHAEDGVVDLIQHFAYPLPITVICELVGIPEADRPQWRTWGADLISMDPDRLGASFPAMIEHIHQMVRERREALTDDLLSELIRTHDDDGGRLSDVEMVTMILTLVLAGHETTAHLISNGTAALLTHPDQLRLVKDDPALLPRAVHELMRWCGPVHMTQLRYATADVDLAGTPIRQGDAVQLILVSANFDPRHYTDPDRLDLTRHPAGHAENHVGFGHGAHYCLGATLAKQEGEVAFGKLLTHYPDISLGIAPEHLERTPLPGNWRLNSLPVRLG

[3] = target: T3, P450Ema2 monooxygenase from Streptomyces tubercidicus strain I-1529 (Streptomyces tubercidicus strain I-1529); assay: cell-based or functional assay
T3 sequence: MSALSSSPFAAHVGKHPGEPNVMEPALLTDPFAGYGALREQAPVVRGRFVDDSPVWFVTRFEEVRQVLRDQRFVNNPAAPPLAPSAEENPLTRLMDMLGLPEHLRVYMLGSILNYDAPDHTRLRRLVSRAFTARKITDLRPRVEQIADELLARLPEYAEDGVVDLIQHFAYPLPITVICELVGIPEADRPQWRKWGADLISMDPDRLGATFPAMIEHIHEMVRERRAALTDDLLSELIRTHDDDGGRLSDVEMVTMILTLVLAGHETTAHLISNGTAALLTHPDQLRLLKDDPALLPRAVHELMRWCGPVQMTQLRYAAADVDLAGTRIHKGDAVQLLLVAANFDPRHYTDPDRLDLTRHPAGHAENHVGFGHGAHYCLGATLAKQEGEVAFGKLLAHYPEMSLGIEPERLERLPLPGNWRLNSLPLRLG

[4] = target: T4, ferredoxin encoded by fd233 from strain I-1529
T4 chain: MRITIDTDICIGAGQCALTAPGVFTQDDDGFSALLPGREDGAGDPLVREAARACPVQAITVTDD

[5] = target: T5, ferredoxin encoded by fd233 from strain I-1529 (Streptomyces tubercidicus strain I-1529); assay: cell-based or functional assay
T5 sequence: T4 chain

B1: ferredoxin encoded by fd233 from strain I-1529 (protein)
chain: T4 chain
**Q.** Which % Conversion of Avermectin, 2 hour (S. lividans ZX7 + pEAA-ema1/fd233, whole cells) [1] does the source give for B1 here?
**A.** The % Conversion of Avermectin, 2 hour (S. lividans ZX7 + pEAA-ema1/fd233, whole cells) was 8.26 % conversion.

**Q.** What about the % Conversion of Avermectin, 2 hour (S. lividans ZX7 + pTBBKA-ema1/fd233, whole cells) [1] of the same binder?
**A.** The % Conversion of Avermectin, 2 hour (S. lividans ZX7 + pTBBKA-ema1/fd233, whole cells) was 8.89 % conversion.

**Q.** What about the % Conversion of Avermectin, 2 hour (S. lividans ZX7 + pTUA-ema1/fd233, whole cells) [1] of the same binder?
**A.** Its % Conversion of Avermectin, 2 hour (S. lividans ZX7 + pTUA-ema1/fd233, whole cells) is 23.3 % conversion.

**Q.** What about the % Conversion of Avermectin, 16 hour (Pseudomonas putida + pRK-ema1/fd233, whole cells) [1] of the same binder?
**A.** Its % Conversion of Avermectin, 16 hour (Pseudomonas putida + pRK-ema1/fd233, whole cells) is 32 % conversion.

**Q.** What about the % Conversion of Avermectin, 16 hour (S. lividans ZX7 + pEAA-ema1/fd233, whole cells) [1] of the same binder?
**A.** The % Conversion of Avermectin, 16 hour (S. lividans ZX7 + pEAA-ema1/fd233, whole cells) was 10.7 % conversion.

**Q.** And the % Conversion of Avermectin, 16 hour (S. lividans ZX7 + pTBBKA-ema1/fd233, whole cells) [1]?
**A.** The % Conversion of Avermectin, 16 hour (S. lividans ZX7 + pTBBKA-ema1/fd233, whole cells) was 31 % conversion.

**Q.** What about the % Conversion of Avermectin, 16 hour (S. lividans ZX7 + pTUA-ema1/fd233, whole cells) [1] of the same binder?
**A.** Its % Conversion of Avermectin, 16 hour (S. lividans ZX7 + pTUA-ema1/fd233, whole cells) is 61.2 % conversion.

**Q.** What about the biocatalysis activity of pTUA-ema1/fd233 in S. lividans relative to pTUA-ema1 (fold) [1] of the same binder?
**A.** Its biocatalysis activity of pTUA-ema1/fd233 in S. lividans relative to pTUA-ema1 (fold) is 1.5 to 3 fold.

**Q.** And the % Conversion of avermectin, 16 hrs (S. avermitilis MOS-0001 + pTBBKA-ema1A/fd233, whole cells) [2]?
**A.** The % Conversion of avermectin, 16 hrs (S. avermitilis MOS-0001 + pTBBKA-ema1A/fd233, whole cells) was 28.5 % conversion.

**Q.** What about the % Conversion of avermectin, 16 hrs (S. avermitilis MOS-0001 + pTUA-ema1A/fd233, whole cells) [2] of the same binder?
**A.** Its % Conversion of avermectin, 16 hrs (S. avermitilis MOS-0001 + pTUA-ema1A/fd233, whole cells) is 24 % conversion.

**Q.** And the % Conversion of Avermectin, 2 hour (S. lividans ZX7 + pTUA-ema2/fd233, whole cells) [3]?
**A.** Its % Conversion of Avermectin, 2 hour (S. lividans ZX7 + pTUA-ema2/fd233, whole cells) is 1.85 % conversion.

**Q.** And the % Conversion of Avermectin, 16 hour (S. lividans ZX7 + pTUA-ema2/fd233, whole cells) [3]?
**A.** Its % Conversion of Avermectin, 16 hour (S. lividans ZX7 + pTUA-ema2/fd233, whole cells) is 6.4 % conversion.

B2: ferredoxin reductase encoded by fre16 from strain I-1529 (enzyme)
chain: VVDAHQTFVIVGGGLAGAKAAETLRAEGFTGRVILICDERDHPYERPPLSKGFLLGKEERDSVFVHEPAWYAQAQIELHLGQPAVRLDPEAKTVRLGDGTLIAYDKLLLATGAEPRRLDIPGTGLAGVHHLRRLAHAERLRGVLASLGRDNGHLVIAGAGWIGLEVAAAARSYGAEVTVVEAAPTPLHGILGPELGGLFTELHRAHGVRFHFGARFTEIVGQDGMVLAVRTDDGEEHPAHDVLAAIGAAPRTALAEQAGLDLADPEAGGGVAVDATLRTSDPYIYAAGDVAAADHPLLDTRLRVEHWANALNGGPAAARAMLGQDISYDRVPYFFSDQYDVGMEYSGYAPPGSYAQVVCRGDVAKREFIAFWLGEDGRLLAGMNVNVWDVAETIQQLIRGGVRLEPGELADPEVPLTSLLP
**Q.** What does the source list for B2?
**A.** biocatalysis activity, S. lividans ZX7 with ema1/fd233/fre operons in pTUA, pTBBKA and pEAA [4]: In each case there was no impact in S. lividans by any of the fre genes on biocatalysis activity; conversion of avermectin to 4″-keto-avermectin, P. putida ATCC 17453 with the ema1/fd233/fre16 operon (whole cell assay; 23% without fre16) [5]: 44 % conversion

B3: ferredoxin reductase encoded by fre3 (protein)
chain: VVDAHQTFVIVGGGLAGAKAAETLRAEGFTGRVILICDERDHPYERPPLSKGFLLGKEERDSVFVHEPAWYAQAQIELHLGQPAVRLDPEGRTVRLGDGTLIAYDKLLLATGAEPRRLDIPGTGLAGVHHLRRLAHAERLRGVLASLGRDNGHLVIAGAGWIGLEVAAAARSYGAEVTVVEAAPTPLHGILGPELGGLFTDLHREHGVRFHFGARFTEIVGEGGMVLAVRTDDGEEHPAHDVLAAIGAAPRTALAEQAGLDLADPETGGGVAVDAALRTSDPYIYAAGDVAAADHPLLDTRLRVEHWANALNGGPAAARAMLGQDISYDRIPYFFSDQYDVGMEYSGYAPPGSYAQVVCRGDVAKREFIAFWLAADGRLLAGMNVNVWDVAESIQQLIRSGAPLEPGALADPQVPLAALLP
**Q.** How did the “biocatalysis activity, S. lividans ZX7 with ema1/fd233/fre operons in pTUA, pTBBKA and pEAA” value [4] turn out when B3 was run?
**A.** Its value is “In each case there was no impact in S. lividans by any of the fre genes on biocatalysis activity”.

B4: ferredoxin reductase encoded by fre12 (protein)
chain: MPAARRRLRPPHRSGDLPARPPGRAHPPRDRPGRHDLRPSRRGGGHRRMKSVAVIGASLAGLYAARSLRSQGFDGRLVIVGDECHGPYDRPPLSKDFLTGATDPGRLALADAEEIAELDAEWLLGTRATGLDTGGRTVLLDGGRSLTTDGVVLATGAAPRLLPGPVPAGVHTLRTLDDAQALRADLAPAPVRVVVIGGGFIGAEVASSCAALGHDVTVVEAAPLPLVPQLGHAMAEICAALHADHGVTLLTGTGVARLRSEGDGRRVTGVELTDGRLLPADVVVVGIGVRPRTAWLTDSGLPLDDGVLCDAGCVTPLPAVVAVGDVARVDGARAEHWTSATEQAAVAARNLLAGSTVATHRSLPYFWSDQYGVRIQFAGHRLPTDTPRVLEGSPDDRSFLACYERDGRTTAVLALNRPRPFMRLRRELARTALSATT
**Q.** For B4, which “biocatalysis activity, S. lividans ZX7 with ema1/fd233/fre operons in pTUA, pTBBKA and pEAA” value [4] is on record?
**A.** Its value is “In each case there was no impact in S. lividans by any of the fre genes on biocatalysis activity”.

B5: ferredoxin reductase encoded by fre14 (protein)
chain: MAQNTAFIIAGAGLAGAKAAETLRAEGFGGPVLLLGDERERPYERPPLSKGYLLGTSEREKAYVHPPQWYAEHDVDLRLGNAVTALDPAGHEVTLADGSRLGYAKLLLATGSTPRRLPVPGADLDGVHTLRYLADSDRLKDLFRSASRIVVIGGGWIGLETTAAARAAGVEVTVLESAPLPLLGVLGREVAQVFADLHTEHGVALRCDTQVTEITGTNGAVDGVRLADGTRIAADAVIVGVGITPNSETAAAAGLKVDNGVVVDERLCSSHPDIYAAGDVANAYHPLLGKHLRVEHWANALHQPKTAARAMLGGEAGYDRLPYFFTDQYDLGMEYTGHVEPGGYDRVVFRGDTGAREFIAFWLSGGRVLAGMNVNVWDVTDPIRALVASGRAVDPERLADADVPLADLVP
**Q.** Which “biocatalysis activity, S. lividans ZX7 with ema1/fd233/fre operons in pTUA, pTBBKA and pEAA” value [4] does the source give for B5 here?
**A.** Its value is “In each case there was no impact in S. lividans by any of the fre genes on biocatalysis activity”.
